According to patent US8063014B2, “Self-assembly of peptide-amphiphile nanofibers under physiological conditions” (Northwestern University, priority 2002, dated 2011):
Non-standard residues stand in square brackets, D forms with d. No end group written: not given here. *: point of attachment. C16 alkyl = N-terminal C16 alkyl tail, CCCCCCCCCCCCCCCC*; pS = N[C@@H](COP(=O)(O)O)C(=O)O

What was measured:
[1] = Gelation on addition of metal salts (vial inversion); type: physicochemical; conditions: for gelation in the presence of KCl or NaCl / result of addition of 200 mM of KCl: 10 mM PA solution; for gelation in the presence of KCl or NaCl: salt concentrations up to 6M; for gelation properties, KCl / gelation properties, BaCl2 / gelation properties, CaCl2 / gelation properties, GdCl3 / gelation properties, ZnBr2 / gelation properties, Cu(ClO4)2 / gelation properties, MgCl2: PA 10 mg/ml (roughly 8 mM); for gelation properties, BaCl2 / gelation properties, CaCl2 / gelation properties, GdCl3 / gelation properties, ZnBr2 / gelation properties, Cu(ClO4)2 / gelation properties, MgCl2: salt 20 mM; for minimal amount of CA+2 and Gd+3 ions needed for the gelation: titration
Description: 100 μl of 10 mg/ml solution of peptide-amphiphile 20 was treated with 1M CaCl2 (adjusted to pH 6) drop wise in 1 μl increments. The solutions were shaken after each addition of the CaCl2 solution in order to obtain better diffusion of the divalent metal ions. Gelation was immediate. […] This calcium induced self-assembly may be particularly useful for medical applications where formation of a gel at physiological pH is desired. Trivalent metal cations can also be used for gelation.
To determine the relative number of metal ions necessary for gelation of the PAs, titration experiments were performed with PA molecules 26 and 27. […] (See Table 3, below). […] None of the negatively charged peptide-amphiphiles except molecule 32 formed gels in the presence of KCl at a ratio 1 molecule of PA per 20 molecules of KCl.
(§1) The synthesis of the peptide amphiphiles illustrates in examples 19-22 was performed using a standard synthesis scheme described elsewhere, herein, and as further available in the literature. Regarding gelation and with reference to the data of Table 3, […] volumes of PA solutions at concentrations 10 mg/ml (approximately 8 mM), pH 7.5 were mixed with 1 M solutions of NaCl, KCl, MgCl2, CaCl2, BaCl2, ZnBr2, […], Gd^+3 and Cu(ClO4)2. The amount of polyvalent ions added to the solutions varied from 0.5 to 5 metal ions per molecule of PA. For monovalent metal ions the maximum concentration of 6 M of metal ions per 10 mM of PA molecules has been tested. The solutions of the metal salts were added to the PA solutions by micropeppetors, the solutions were stirred briefly, in order to obtain better mixing of the components. The formation of self-supporting gels was examined by flipping of the vials up side down. In order to test the ability of cell compatible solutions to induce a gelation of PAs equal amounts 10 mM PA solutions were mixed with following formulations: MEM-α, DMEM containing 10% of fetal bovine serum, PBS without Ca^+2 and Mg^+2 and Hank's solution without Ca^+2 and Mg^+2 (Gibco). The ability of the above solutions to induce formation of the PAs was examined visually by flipping the vials up side down.

[2] = Solubility, pH-dependent precipitation and gelation in water; type: physicochemical
Description: After synthesis (see, example 10), the PA of FIG. 1 (characterized by ^1H NMR and matrix-assisted laser desorption/ionization time-of-flight mass spectrometry (MALDI-TOF MS): matrix ion [M−H]^−1=1333) was treated with dithiothreitol (DTT) at a pH of 8 to reduce all cysteine residues to free thiols. […] However, upon acidification of the solution below pH 4 the material rapidly becomes insoluble. Solutions more concentrated than 2.5 mg/ml form birefringent gels in water that are self-supporting upon inversion of the container. […] Negatives were digitized in the Umax PowerLook scanner with resolution 1200 dpi. The average thickness of the PA fibers was determined by two different procedures. First the Fourier transform of the images and following measurements of the distances between the peaks were performed in the NIH Image […] program. The second approach applied was averaging technique based on the cross-correlation method, widely used in single particle reconstruction using the EMAN […] program. For each data set 1200-1300 individual boxes were selected.
Several PAs with basic amino acids that can self-assemble at alkaline pH and also mixed systems, in which oppositely charged PAs self-assemble at neutral pH, were prepared. For this purpose PA compounds 22-25 were prepared by standard solid phase peptide synthesis followed by alkylation with the C16 fatty acid, palmitic acid. See Table 2, FIG. 10b (PA 22) and FIGS. 10c-e (PAs 23-25). The peptides thus prepared were characterized by electrospray mass spectroscopy and found to correspond to their respective expected masses.
Solutions of each compound of example 6 were prepared at a concentration of 0.1 mg/m1 at neutral pH.

[3] = Gelation on mixing with cell culture media, PBS or Hank's solution; type: physicochemical; conditions: for gel formation on mixing with equal amounts of cell culture media: 10 mM PA solution in water; for gel formation on mixing with PBS and Hank's solutions depleted by Ca2+ and Mg2+: PA solution
Description: One potential application of the peptide-amphiphile self-assembled gels is in the area of tissue engineering, in particular the formation of artificial extracellular matrices and cell delivery systems. The results of this example show PA self-assembly in situ and in vitro cell culture systems. Body fluids as well as cell culture media contain significant amounts inorganic cations. It was presumed that the peptide amphiphiles would form a gel upon mixing with these liquids.
as §1

[4] = Mineralization of PA nanofibers with CaCl2 and Na2HPO4 on TEM grid
Description: To investigate the mineralization properties of PA nanofibers of this invention, the material was assembled and mineralized directly on a holey carbon coated TEM grid—to allow study of the dynamics of the mineralization process while minimizing artifacts of TEM sample preparation. To prepare samples, a drop of aqueous PA (1 mg/ml) was mounted on the holey grid and the self-assembly of the PA was induced in an atmosphere of HCl vapor. The grids were immersed in aqueous iodine to oxidize the cysteine thiol groups to disulfides. After rinsing with distilled water, the PA coated grids were treated with 5 μl of 10 mM CaCl2 on one side and 5 μl of 5 mM Na2HPO4 on the other side. The two solutions are able to mix only by passing through the holes in the carbon support.
In a second control, a PA was prepared in which phosphoserine was replaced by serine and treated as above with calcium and phosphate.

[5] = KCl concentration up to 6M (molecules 26 and 27)

| Substance | gelation properties, BaCl2 [1] | gelation properties, CaCl2 [1] | gelation properties, GdCl3 [1] | gelation properties, ZnBr2 [1] | gelation properties, KCl ([1]; KCl 200 mM, pH 7.5) | other results |
| --- | --- | --- | --- | --- | --- | --- |
| 20 ({C16 alkyl}-CCCCGGGSRGD-OH; cysteine pairing not given here) [compound 20] | – | – | – | – | – | gelation on dropwise addition of CaCl2 ([1]; 100 μl of 10 mg/ml PA, 1M CaCl2 (pH 6) in 1 μl increments): immediate |
| 21 ({C16 alkyl}-CCCCGGGEIKVAV-OH; cysteine pairing not given here) [compound 21] | – | – | – | – | – | appearance of the solution ([2]; 5 mg/ml in water at pH 7): slightly cloudy |
| 22 ({C16 alkyl}-CCCCGGGKIKVAV-NH2; cysteine pairing not given here) [compound 22] | – | – | – | – | – | appearance of the solution ([2]; 5 mg/ml in water at pH 7): slightly cloudy; appearance of the solution ([2]; 10 mg/ml, neutral pH): cloudy and viscous |
| 24 ({C16 alkyl}-AAAAGGGKYIGSR-NH2; SMILES CCCCCCCCCCCCCCCCN[C@@H](C)C(=O)N[C@@H](C)C(=O)N[C@@H](C)C(=O)N[C@@H](C)C(=O)NCC(=O)NCC(=O)NCC(=O)N[C@@H](CCCCN)C(=O)N[C@@H](Cc1ccc(O)cc1)C(=O)N[C@H](C(=O)NCC(=O)N[C@@H](CO)C(=O)N[C@@H](CCCNC(=N)N)C(N)=O)[C@@H](C)CC) [compound 24] | – | – | – | – | – | pH above which a precipitate forms on slow addition of base ([2]; 0.1 mg/ml solution): above 9.5 pH; state at neutral pH ([2]; 0.1 mg/ml solution): completely dissolved; appearance of the solution ([2]; 10 mg/ml, neutral pH): cloudy and viscous |
| 25 ({C16 alkyl}-AAAAGGGEIKVAV-OH; SMILES CCCCCCCCCCCCCCCCN[C@@H](C)C(=O)N[C@@H](C)C(=O)N[C@@H](C)C(=O)N[C@@H](C)C(=O)NCC(=O)NCC(=O)NCC(=O)N[C@@H](CCC(=O)O)C(=O)N[C@H](C(=O)N[C@@H](CCCCN)C(=O)N[C@H](C(=O)N[C@@H](C)C(=O)N[C@H](C(=O)O)C(C)C)C(C)C)[C@@H](C)CC) [compound 25] | – | – | – | – | – | pH below which the PA precipitates on slow acidification (HCl) ([2]; 0.1 mg/ml solution): < 4.5 pH; state at neutral pH ([2]; 0.1 mg/ml solution): completely dissolved; state on increasing the solution's pH (KOH) ([2]; 0.1 mg/ml solution): completely dissolved |
| 26 (CCCCGGG[pS]RGD-OH; not fully specified (N-terminus); cysteine pairing not given here) [compound 26] | gel | gel | gel | gel | – | gelation in the presence of KCl or NaCl [1]: did not gel; gelation properties, KCl [1, 5]: Liquid; minimal amount of CA+2 and Gd+3 ions needed for the gelation [1]: about equal to the number of PA molecules in solution |
| 27 (AAAAGGG[pS]RGD-OH; not fully specified (N-terminus); printed as Alkyl-A4G3S(P)RGD-COOH) [compound 27] | gel | gel | gel | gel | – | gel formation on mixing with equal amounts of cell culture media [3]: gel formation was observed; gel formation on mixing with PBS and Hank's solutions depleted by Ca2+ and Mg2+ [3]: no gel formation was observed; gelation in the presence of KCl or NaCl [1]: did not gel; gelation properties, KCl [1, 5]: Liquid; gelation properties, Cu(ClO4)2 [1]: gel; minimal amount of CA+2 and Gd+3 ions needed for the gelation [1]: about equal to the number of PA molecules in solution |
| 28 (AAAAGGG[pS]KGE-OH; not fully specified (N-terminus)) [compound 28] | gel | gel | gel | gel | Liquid | gel formation on mixing with equal amounts of cell culture media [3]: gel formation was observed; gel formation on mixing with PBS and Hank's solutions depleted by Ca2+ and Mg2+ [3]: no gel formation was observed |
| 29 (CCCCGGGSRGD-OH; not fully specified (N-terminus); cysteine pairing not given here) [compound 29] | gel | gel | gel | gel | Liquid | – |
| 30 ({C16 alkyl}-AAAGGEQS-OH; SMILES CCCCCCCCCCCCCCCCN[C@@H](C)C(=O)N[C@@H](C)C(=O)N[C@@H](C)C(=O)NCC(=O)NCC(=O)N[C@@H](CCC(=O)O)C(=O)N[C@@H](CCC(N)=O)C(=O)N[C@@H](CO)C(=O)O) [compound 30] | gel | gel | gel | gel | Liquid | gelation properties, Cu(ClO4)2 [1]: gel; gelation properties, MgCl2 [1]: gel |
| 31 ({C16 alkyl}-AAAAGGGERGDS-OH; SMILES CCCCCCCCCCCCCCCCN[C@@H](C)C(=O)N[C@@H](C)C(=O)N[C@@H](C)C(=O)N[C@@H](C)C(=O)NCC(=O)NCC(=O)NCC(=O)N[C@@H](CCC(=O)O)C(=O)N[C@@H](CCCNC(=N)N)C(=O)NCC(=O)N[C@@H](CC(=O)O)C(=O)N[C@@H](CO)C(=O)O) [compound 31] | – | – | gel | gel | liquid | – |
| 32 (CCCCGGGEIKVAV-OH; not fully specified (N-terminus); cysteine pairing not given here) [compound 32] | – | gel | gel | gel | gel | result of addition of 200 mM of KCl [1]: formation of a self-supporting gel; gel formation in the presence of KCl ([1]; ratio 1 molecule of PA per 20 molecules of KCl): formed gels; gelation properties, MgCl2 [1]: gel |
| 33 ({C16 alkyl}-CCCCGGGKIKVAV-NH2; cysteine pairing not given here) [compound 33] | – | – | – | – | – | gel formation on mixing with equal amounts of cell culture media [3]: gel formation was observed; result of addition of 200 mM of KCl [1]: formation of a self-supporting gel |
| Alkyl-C4G3SRGD-COOH ({C16 alkyl}-CCCCGGGSRGD-OH; cysteine pairing not given here) [PA 29] | – | – | – | – | – | mineral observed on the fibers by TEM ([4]; 20 minutes of incubation with calcium and phosphate): only amorphous mineral deposit; mineral observed on the fibers by TEM ([4]; 30 minutes of incubation with calcium and phosphate): only amorphous mineral |
